This note sets out measurements from PMC5719079.

Experiment [1] addresses Tubulin Polymerization Promoting Protein (TPPP/p25) (human) (UniProt O94811). The experiment is described as follows: ELISA; plate coated with 5 ug/ml TPPP/p25 overnight in PBS; tubulin added at a serial dilution; bound tubulin detected by monoclonal tubulin antibody and HRP-conjugated secondary antibody; Kd from the saturation curve by a single binding site hyperbola model; apparent. (In general: In an ELISA, binding on a coated surface is turned into a signal by an enzyme label.)
Sequence of UniProt O94811 (O94811 whole entry): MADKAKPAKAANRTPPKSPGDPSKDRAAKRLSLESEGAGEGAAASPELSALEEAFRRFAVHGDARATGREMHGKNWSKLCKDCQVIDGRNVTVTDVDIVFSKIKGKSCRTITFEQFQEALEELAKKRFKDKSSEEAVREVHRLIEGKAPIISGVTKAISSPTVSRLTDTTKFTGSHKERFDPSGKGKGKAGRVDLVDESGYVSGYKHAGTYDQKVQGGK

The target in experiment [2] is Human recombinant hexaHis-tagged SIRT2 containing residues 50-356 (human) (UniProt Q8IXJ6). Put plainly: ELISA; plate coated with 5 μg/ml SIRT2 overnight in PBS; TPPP/p25 or tubulin added in serial dilution, detected by TPPP/p25 or tubulin antibody; apparent Kd from a single binding site hyperbola; MZ242, MZ25 and SH1 up to 30 μM did not influence the binding of 125 nM TPPP/p25 significantly.
Sequence of UniProt Q8IXJ6 (Q8IXJ6 50-356): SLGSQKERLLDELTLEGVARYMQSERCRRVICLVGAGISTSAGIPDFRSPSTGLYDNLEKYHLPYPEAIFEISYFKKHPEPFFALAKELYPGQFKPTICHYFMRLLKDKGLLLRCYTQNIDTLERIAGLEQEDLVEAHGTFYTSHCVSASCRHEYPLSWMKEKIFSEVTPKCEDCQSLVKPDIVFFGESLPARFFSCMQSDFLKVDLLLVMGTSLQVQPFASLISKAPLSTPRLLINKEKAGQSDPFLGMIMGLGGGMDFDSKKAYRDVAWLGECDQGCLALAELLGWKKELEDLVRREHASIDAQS

Take “tubulin (from UniProt Q6B856 1-445) (complex)”: the Kd in experiment [1] stood at 10 nM.
For the substance “Tubulin prepared from bovine brain (from UniProt Q6B856 1-445) (complex)”, in experiment [2], the Kd was over 2000 nM.
